# B1: human glu-plasminogen (Haematologic technologies) (protein)
# chain: KVYLSECKTGNGKNYRGTMSKTKNGITCQKWSSTSPHRPRFSPATHPSEGLEENYCRNPDNDPQGPWCYTTDPEKRYDYCDILECEEECMHCSGENYDGKISKTMSGLECQAWDSQSPHAHGYIPSKFPNKNLKKNYCRNPDRELRPWCFTTDPNKRWELCDIPRCTTPPPSSGPTYQCLKGTGENYRGNVAVTVSGHTCQHWSAQTPHTHNRTPENFPCKNLDENYCRNPDGKRAPWCHTTNSQVRWEYCKIPSCDSSPVSTEQLAPTAPPELTPVVQDCYHGDGQSYRGTSSTTTTGKKCQSWSSMTPHRHQKTPENYPNAGLTMNYCRNPDADKGPWCFTTDPSVRWEYCNLKKCSGTEASVVAPPPVVLLPDVETPSEEDCMFGNGKGYRGKRATTVTGTPCQDWAAQEPHRHSIFTPETNPRAGLEKNYCRNPDGDVGGPWCYTTNPRKLYDYCDVPQCAAPSFDCGKPQVEPKKCPGRVVGGCVAHPHSWPWQVSLRTRFGMHFCGGTLISPEWVLTAAHCLEKSPRPSSYKVILGAHQEVNLEPHVQEIEVSRLFLEPTRKDIALLKLSSPAVITDKVIPACLPSPNYVVADRTECFITGWGETQGTFGAGLLKEAQLPVIENKVCNRYEFLNGRVQSTELCAGHLAGGTDSCQGDSGGPLVCFEKDKYILQGVTSWGLGCARPNKPGVYVRVSRFVTWIEGVMRNN
# Molecular target: α-enolase of Enterococcus faecalis V583, surface-expressed
protein,measurement,value
B1,plasmin activity assay with enolase-blocking antibodies,The data is consistent with surface-expressed alpha-enolase being one of multiple PLG receptors on E. faecalis
